{"source": "paper doi:10.1101/2023.04.24.538112", "biological_target": "Full-length (FL) BRAF purified from HEK293F cells (UniProt P15056)", "sequence (P15056 whole entry)": "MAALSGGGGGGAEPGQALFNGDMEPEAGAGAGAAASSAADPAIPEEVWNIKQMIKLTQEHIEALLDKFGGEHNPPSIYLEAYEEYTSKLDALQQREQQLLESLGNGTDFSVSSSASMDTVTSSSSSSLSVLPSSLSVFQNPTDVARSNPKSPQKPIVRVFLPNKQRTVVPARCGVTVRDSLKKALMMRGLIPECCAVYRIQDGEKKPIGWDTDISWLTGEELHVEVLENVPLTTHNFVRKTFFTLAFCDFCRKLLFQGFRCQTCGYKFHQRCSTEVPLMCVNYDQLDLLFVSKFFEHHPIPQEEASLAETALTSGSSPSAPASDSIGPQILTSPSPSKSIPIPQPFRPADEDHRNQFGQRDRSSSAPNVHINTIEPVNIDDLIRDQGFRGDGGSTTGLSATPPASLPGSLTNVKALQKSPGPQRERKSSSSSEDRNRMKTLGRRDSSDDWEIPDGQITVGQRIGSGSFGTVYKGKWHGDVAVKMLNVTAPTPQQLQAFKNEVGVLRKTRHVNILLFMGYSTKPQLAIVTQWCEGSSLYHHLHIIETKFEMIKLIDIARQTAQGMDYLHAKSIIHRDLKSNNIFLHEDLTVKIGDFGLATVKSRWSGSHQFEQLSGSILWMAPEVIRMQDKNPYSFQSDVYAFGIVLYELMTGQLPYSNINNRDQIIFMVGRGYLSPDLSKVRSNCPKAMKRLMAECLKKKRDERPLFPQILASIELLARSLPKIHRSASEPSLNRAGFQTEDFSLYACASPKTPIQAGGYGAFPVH", "experiment": "SPR; OpenSPR; His/MBP-NT1-4 or FL-BRAF immobilised on Ni-NTA sensor, KRAS-GMPPNP (GST-tagged or untagged) or GST alone flowed at 30 μL/min for 10 min; 20 mM HEPES pH 7.4, 150 mM NaCl, 0.23% glycerol, 0.05% Tween-20, 1% BSA; 1:1 fit"}
{"substance": "GST-tagged, dimeric full-length KRAS4b (from UniProt P01116-2 1-188) (natural protein)", "values": [{"measurement": "Kd", "value": 101, "unit": "nM"}]}
